In US20090018067A1 (published 2009):

Assays:
Assay in all cases: soluble HLA class II competition assay against a biotinylated control peptide, affinity grade
[1] = target: T1, HLA DRB1*0701 (purified recombinant soluble HLA class II molecule) (human)
T1 construct: also called DRB*0701

[2] = target: T2, HLA DRB1*0401 (purified recombinant soluble HLA class II molecule) (human)
T2 construct: also called DRB*0401

[3] = target: T3, HLA DRB1*0101 (purified recombinant soluble HLA class II molecule) (human)
T3 construct: also called DRB*0101

[4] = target: HLA DRB1*1501 (purified recombinant soluble HLA class II molecule) (human)

Measured: binding result

VDTSKNQFSLRLSSVTAADTA (Synthetic Fmoc peptide) [Tregitope-074]
binds: [1] | [2] | [3] | [4]
